From the nanobody polyreactivity screen of Harvey et al. (2022) come the findings set out here.

A short description of the data set: yeast display, Sf9 membrane polyspecificity reagent, FACS + sequencing; frameworks hold sequencing errors. The method, boiled down: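 Polyreactivity labels are assigned by the sorting gate from which each nanobody was recovered. The gates were low and high (top ~1%), set on anti-HA fluorescence for expression and streptavidin fluorescence for reagent binding. Before sorting, galactose-induced (36–48 hours) yeast display cells were stained for 1 hour at 4 °C with 10% biotinylated, detergent-solubilized Sf9 membrane reagent.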
On to “QVQLVESGGGLVQAGGSLRLSCAASGFTFNRYAMGWYRQAPGKERELVAAIRSRGGSTYYADSVKGRFTISRDNAKNTVYLQMNSLKPEDTAVYYCAARSFQFYRFDYWGQGTQVTVSS”, for which the “polyreactivity (PSR sort gate)” value was “high polyreactivity”.

For “QVQLVESGGGLVQAGGSLRLSCAASGFTFNRYAMGWYRQAPGKERELVAAISRGGGSTYYADSVKGRFTISRDNAKNTVYLQMNSLKPEDTAVYYCAADTRVRTCRYGFWGQGTQVNVSS”, the “polyreactivity (PSR sort gate)” value is recorded as “high polyreactivity”.

In the case of “QVQLVESGGGLVQAGGSLRLSCAASGFTFNRYVMGWYRQAPGKERELVAAISGGGARTYYADSVKGRFTISRDNAKNTVYLQMNSLKPEDTAVYYCNARYKSHSVSDYYYWGQGTQVTVSS”, the “polyreactivity (PSR sort gate)” value was “high polyreactivity”.

Consider “QVQLVESGGGLVQAGGSLRLSCAASGFTFNYYAMGWYRQAPGKERELVAAIDSGGNTYYADSVKGRFTISRDNAKNTVYLQMNRLKPEDTAVYYCAAYRDYQYDYWGQGTQVTVSS”, for which the “polyreactivity (PSR sort gate)” value is listed as “low polyreactivity”.

Regarding “QVQLVESGGGLVQAGGSLRLSCAASGFTFNYYAMGWYRQAPGKERELVAGITRSGVSTNYADSVKGRFTISRDNAKNTVYLQMNSLKPEDTAGYYSAREEGRRYRGWPYVFAPQHDYWGQGTQVTVSS”, the “polyreactivity (PSR sort gate)” value was “high polyreactivity”.

With “QVQLVESGGGLVQAGGSLRLSCAASGFTFPEYAMGWYRQAPGKERELVAAISSGDSTNYADSVKGRLTISRDNAKNTVYLQMNILKPEDTAVDYCAADYYDYYYEYEYWGQGTQVTVSS”, the “polyreactivity (PSR sort gate)” value is on record as “low polyreactivity”.

On to “QVQLVESGGGLVQAGGSLRLSCAASGFTFPGNAMGWYRHPPGKERELVAAISSTDRTTNADSVKGRFTISRDNAKNTGYLQMNSLKPEDTAVYYCYTATRRRPRGYWGQGTQVTVSS”, for which the “polyreactivity (PSR sort gate)” value is “high polyreactivity”.

As for “QVQLVESGGGLVQAGGSLRLSCAASGFTFPGNAMGWYRQAPGKEREFVAAITRSSGSTSYADSVKGRFTISRDNAKNTVYLQMNSLKPEDTAVYRDYWGQGTQVTVSS”, the “polyreactivity (PSR sort gate)” value is “low polyreactivity”.

Turning to “QVQLVESGGGLVQAGGSLRLSCAASGFTFPKYAMGWYRQAPGKERELVAAITWSGGSTRYADSVKGRFTISRDNAKNTVYLQMNSLKPEDTAVYYCAADRRSGYSRYKYGRGDYWGQGTQVTVSS”, the “polyreactivity (PSR sort gate)” value is listed as “high polyreactivity”.

As to “QVQLVESGGGLVQAGGSLRLSCAASGFTFPLNAMGWYRQAPGKERELVAAISGSGGSTYYADSVKGRFTISRDNAKNTVYLQMNSLKPEDTAVYYCAAGIYYWGQGTQVTVSS”, the “polyreactivity (PSR sort gate)” value is reported as “low polyreactivity”.

With “QVQLVESGGGLVQAGGSLRLSCAASGFTFPLNARGWYRQAPGKERELVAAITNGGTTYYADSVKGRFTISRDNAKNTVYLQMHSLKPEDTAVYYCAAYTYRYGSFKYGYWGQGTQVTVSS”, the “polyreactivity (PSR sort gate)” value is “low polyreactivity”.

For “QVQLVESGGGLVQAGGSLRLSCAASGFTFPQYVMGGYRQAPGKERELVAAISSRGGRTYYADSVKGRFTISRDNAKNTVYLQMNSLIPEDTAVYYCAKGKRDSRAFDYWGQGTQVTVSS”, the “polyreactivity (PSR sort gate)” value is listed as “high polyreactivity”.

As for “QVQLVESGGGLVQAGGSLRLSCAASGFTFPRNVMGWYRQAPGKERELVAAISRSGSRTSYADSVKGRFTISRDNAKNTVYLQMNSVKPEDTAVYYCATSSGVGGYAAYYYWGQGTQVTVSS”, the “polyreactivity (PSR sort gate)” value is “high polyreactivity”.

As to “QVQLVESGGGLVQAGGSLRLSCAASGFTFPRYAMGWYRQAPGKERELVAAISTSGDSTYYADSVKGRFTISRDNAKNTVYLQMNSLKPEDTAVYYCAARVVRGRYGYWGQGTQVTVSS”, the “polyreactivity (PSR sort gate)” value is on record as “high polyreactivity”.

For “QVQLVESGGGLVQAGGSLRLSCAASGFTFPSYAMGWYRQAPGKDREFVAGITKGGGNTYYADSVKGRFTISRDNAKNNVYLQMNSLKPEDTAVYYCAKCPLPRAGVKFDYWGQGTQVTVSS”, the “polyreactivity (PSR sort gate)” value is recorded as “low polyreactivity”.

Regarding “QVQLVESGGGLVQAGGSLRLSCAASGFTFPTYAMGWYRPAPGKERELVAAITRGGSTYYADSVKGRFTISRDNAKNTVYLQMNSLKPEDTAVYYCAGDDPWYEEDYWGQGTQVTVSS”, the “polyreactivity (PSR sort gate)” value was “low polyreactivity”.

Turning to “QVQLVESGGGLVQAGGSLRLSCAASGFTFPVYAMGWYRQAPGKEREFVAAITKSGGGTYYADSVKGRFTISRDNAKNTVYLQMNSLKPVDTAVYYCAKASRRFLTLGYDYWGQGTQVTVSS”, the “polyreactivity (PSR sort gate)” value is recorded as “high polyreactivity”.

Regarding “QVQLVESGGGLVQAGGSLRLSCAASGFTFPVYAMGWYRQAPGKERELVAAISRRGGRTYYADSVKGRFTISRDNAKNTVYLQMNSLKPEDTAVYYCAAQSVPYAYRLASYDYWGQGTQVTVSS”, the “polyreactivity (PSR sort gate)” value is given as “high polyreactivity”.

For the sequence “QVQLVESGGGLVQAGGSLRLSCAASGFTFPVYAMGWYRQAPGKERELVAAITYNGGSTYDADSVKGRFTISRDNAKHTVYFQMNSLKPEDTAVSYCAAEVFLRSLGYWYDYWGQGTQVTVSS”, the “polyreactivity (PSR sort gate)” value is “high polyreactivity”.

Regarding “QVQLVESGGGLVQAGGSLRLSCAASGFTFPWYAMGWYIQAPGKERELVASISYRGDSTYYADSVKGRFTISRDNAKNTVYLQMNSLKPEDTAVYYCNKRLASYYLPGFDYWGQGTQVTVSS”, the “polyreactivity (PSR sort gate)” value is “low polyreactivity”.

On to “QVQLVESGGGLVQAGGSLRLSCAASGFTFPWYAMGWYRQAPGKERELVAAITSGGGSTYYADSVKGRFTISRYNAKNTVYLQMNSLKPEDTAVYYCATSYTKQGFRYYYWGQGTQVTVSS”, for which the “polyreactivity (PSR sort gate)” value is reported as “high polyreactivity”.

Turning to “QVQLVESGGGLVQAGGSLRLSCAASGFTFPYNDMGWYIQARGKEREFVAAISRSGTRTYYADSVKGRFTISRDNAKHTVYLQMNSLKPEDTAVYYCNARAAGYARLGPGFDYWGQGTQVTVSS”, the “polyreactivity (PSR sort gate)” value was “high polyreactivity”.

In the case of “QVQLVESGGGLVQAGGSLRLSCAASGFTFPYYAMAWYRQAPGKEREVVAAISFSGGRTYYADSVMGRFTISRDNAKYTVYLQMNSLKPEDTAVYYCASYDYRNTGGGGYYYWGQGTQVTVSS”, the “polyreactivity (PSR sort gate)” value was “high polyreactivity”.

As for “QVQLVESGGGLVQAGGSLRLSCAASGFTFPYYAMGWYRQAPGKEMELVAVISGSGTRTNYADSVKGRFTISRDNAKNTVYLQMNSLKPEDTEVYYCAAYYTYLHYIYDYWGQGTQVTVSS”, the “polyreactivity (PSR sort gate)” value is on record as “high polyreactivity”.

As to “QVQLVESGGGLVQAGGSLRLSCAASGFTFPYYAMGWYRQAPGKERDLVARISSGGSTNYADSVKGRFTISRDNAKNTVYLQMNSLKPEDTAVYYCNKVRTVTTYEYWGQGTQVTVSS”, the “polyreactivity (PSR sort gate)” value is “high polyreactivity”.

As to “QVQLVESGGGLVQAGGSLRLSCAASGFTFPYYAMGWYRQAPGKERELVAAISQGGASTRYADSVKGRFTISRDNAKNTVYLQMNSLKPEDTAVYYCAAKSRHFWMDYWGQGTQVTVSS”, the “polyreactivity (PSR sort gate)” value is reported as “high polyreactivity”.

Turning to “QVQLVESGGGLVQAGGSLRLSCAASGFTFPYYAMGWYRQAPGKERELVAAISRSGTSTNYADSVKGRFTISRDNAKNTVYLQMNSLKPEDTAVYYCATARRQGKVIQYYYWGQGTQVTVSS”, the “polyreactivity (PSR sort gate)” value is “high polyreactivity”.

Take “QVQLVESGGGLVQAGGSLRLSCAASGFTFPYYAMGWYRQAPGKERELVAAISSGGRTNYADSVKGRFTISRDNAKNTVYLQMNSLKPEDTAVYYCATRSYVFAWEFNYWGQGTQVTVSS”: the “polyreactivity (PSR sort gate)” value is “high polyreactivity”.

With “QVQLVESGGGLVQAGGSLRLSCAASGFTFPYYAMGWYRQAPGKERELVAAISTRGGSTYYADSVKGRFTISRDNAKNTVYLQMKSLKPEDTAVYYCAADPGRVTRVGVRYYYWGQGTQVTVSS”, the “polyreactivity (PSR sort gate)” value is given as “high polyreactivity”.

As to “QVQLVESGGGLVQAGGSLRLSCAASGFTFPYYAMGWYRQAPGKERELVAAISWDGGITYYADSVKGRFTISRDNAKNTVYLQMNSLKPEDTAVYYCNVEGWYDYDYWGQGTQVTVSS”, the “polyreactivity (PSR sort gate)” value is “high polyreactivity”.

In the case of “QVQLVESGGGLVQAGGSLRLSCAASGFTFPYYAMGWYRQAPGKERELVADITSGGGTNYADSVKGRFTISRDNAKNTVFLQMNSLKPEDTAVYYCAADAYHQGMDYWGQGTQVTVSS”, the “polyreactivity (PSR sort gate)” value is reported as “low polyreactivity”.

Consider “QVQLVESGGGLVQAGGSLRLSCAASGFTFQDYAMGWYRQAPGKERELVAAISTSDGNTYYADSVKGRFTISRDNAKNTVYLQMNSLKPEDTAVYYCAAQRNYGWVKFYYWGQGTQVTVSS”, for which the “polyreactivity (PSR sort gate)” value is reported as “high polyreactivity”.

“QVQLVESGGGLVQAGGSLRLSCAASGFTFQWYAMGWYRQAPGKERELVAGITSGASTNYADSVKGRFTISRDNAKNNVYLQMNSLKPEDTAVYYCAAGYKSRYYRNSGYYWGQGTQVTVSS”: the “polyreactivity (PSR sort gate)” value is “high polyreactivity”.

“QVQLVESGGGLVQAGGSLRLSCAASGFTFQWYAMGWYRQAPGKERELVAGITSGASTNYADSVKGRFTISRDNAKNTVYLQMNSLKPEDTAVYYCAARRWREGARYSYWGQGTQVTVSS”: the “polyreactivity (PSR sort gate)” value was “high polyreactivity”.

Take “QVQLVESGGGLVQAGGSLRLSCAASGFTFQYYAMGCYRPAPGKERELVATISSTDNTYYADSVKGRFTISRDNAKNTVYLQMFSLKPEDTAVYYCNAAYVYGYQARGGYWGQGTQVTVSS”: the “polyreactivity (PSR sort gate)” value is recorded as “high polyreactivity”.

Take “QVQLVESGGGLVQAGGSLRLSCAASGFTFQYYAMGWYRQAPGKERELVAAITWSGTSTYYADSVKGRFTISRDNAKNTVYLQMNSLKPEDTAVYYCNKYSPYITYDYDYWGQGTQVTVSS”: the “polyreactivity (PSR sort gate)” value was “high polyreactivity”.

“QVQLVESGGGLVQAGGSLRLSCAASGFTFRAYAMGWYRQAPGKERELVATITRSGGSTFYADSVKGRFTISRDNAKNTVYLQMNSLKPEDTAVYYCAAVYRFAFRYAWYKYDYWGQGTQVTVSS”: the “polyreactivity (PSR sort gate)” value is listed as “high polyreactivity”.

As to “QVQLVESGGGLVQAGGSLRLSCAASGFTFRDNAMGRYRQAPGKERELVAAITWDGGSTYYADSVKGRFTISRDNEKNTVYLQMNSLKPEDTAVYYCAASRYYPRYFKRYYYWGQGTQVTVSS”, the “polyreactivity (PSR sort gate)” value is “high polyreactivity”.

Turning to “QVQLVESGGGLVQAGGSLRLSCAASGFTFRDYAMGWYRQAPGKERELVAAISRSGDSTYYADSVKGRFTISRDNAKNTVYLQMNSLKPEDTAVYDYAAKRRYTTYDYWGQGTQVTVSS”, the “polyreactivity (PSR sort gate)” value is “high polyreactivity”.

Take “QVQLVESGGGLVQAGGSLRLSCAASGFTFRGNAMGWYRQAPGKERELVAAITSSDDSTYYADSVKGRFTISRDNAKNTVYLQMNSLKPEDTAVYYCAAVANGYWTYEYWGQGTQVTVSS”: the “polyreactivity (PSR sort gate)” value is reported as “low polyreactivity”.

For “QVQLVESGGGLVQAGGSLRLSCAASGFTFRGYAMGWYRPAPGKERELVAAITVRGGRTYYADSVKGRFTISRDNAKNTVYLQMNSLKPEETALYYCAKPVDRYTYSLYQQYDYWGQGTQVTVSS”, the “polyreactivity (PSR sort gate)” value is reported as “high polyreactivity”.
